Laboratory results published in patent US10487307B2, “Culture method for pluripotent stem cells” (FUJIFILM CORPORATION, priority 2013, dated 2019).

B1: RCP-26: comparative polypeptide, SEQ ID NO: 31; vitronectin positions 269-459 (protein)
chain: GPLGPSQEECEGSSLSAVFEHFAMMQRDSWEDIFELLFWGRTSAGTRQPQFISRDWHGVPGQVDAAMAGRIYISGMAPRPSLAKKQRFRHRNRKGYRSQRGHSRGRNQNSRRPSRATWLSLFSSEESNLGANNYDDYRMDWLVPATCEPIQSVFFFSGDKYYRVNLRTRRVDTVDPPYPRSIAQYWLGCPAPGHL
modifications: Vitronectin-derived Recombinant Protein (RCP-26)
B2: RCP-25: comparative polypeptide, SEQ ID NO: 30; vitronectin positions 56-459 (protein)
chain: GPLGYTVYDDGEEKNNATVHEQVGGPSLTSDLQAQSKGNPEQTPVLKPEEEAPAPEVGASKPEGIDSRPETLHPGRPQPPAEEELCSGKPFDAFTDLKNGSLFAFRGQYCYELDEKAVRPGYPKLIRDVWGIEGPIDAAFTRINCQGKTYLFKGSQYWRFEDGVLDPDYPRNISDGFDGIPDNVDAALALPAHSYSGRERVYFFKGKQYWEYQFQHQPSQEECEGSSLSAVFEHFAMMQRDSWEDIFELLFWGRTSAGTRQPQFISRDWHGVPGQVDAAMAGRIYISGMAPRPSLAKKQRFRHRNRKGYRSQRGHSRGRNQNSRRPSRATWLSLFSSEESNLGANNYDDYRMDWLVPATCEPIQSVFFFSGDKYYRVNLRTRRVDTVDPPYPRSIAQYWLGCPAPGHL
modifications: Vitronectin-derived Recombinant Protein (RCP-25)
B3: Natural vitronectin: human vitronectin (extracted from human serum, BD Biosciences) (protein, listed as Homo sapiens)
chain: DQESCKGRCTEGFNVDKKCQCDELCSYYQSCCTDYTAECKPQVTRGDVFTMPEDEYTVYDDGEEKNNATVHEQVGGPSLTSDLQAQSKGNPEQTPVLKPEEEAPAPEVGASKPEGIDSRPETLHPGRPQPPAEEELCSGKPFDAFTDLKNGSLFAFRGQYCYELDEKAVRPGYPKLIRDVWGIEGPIDAAFTRINCQGKTYLFKGSQYWRFEDGVLDPDYPRNISDGFDGIPDNVDAALALPAHSYSGRERVYFFKGKQYWEYQFQHQPSQEECEGSSLSAVFEHFAMMQRDSWEDIFELLFWGRTSAGTRQPQFISRDWHGVPGQVDAAMAGRIYISGMAPRPSLAKKQRFRHRNRKGYRSQRGHSRGRNQNSRRPSRATWLSLFSSEESNLGANNYDDYRMDWLVPATCEPIQSVFFFSGDKYYRVNLRTRRVDTVDPPYPRSIAQYWLGCPAPGHL
modifications: glycosylated
B4: RCP-23: comparative polypeptide, SEQ ID NO: 28; vitronectin positions 1-55, 56-129 (protein)
chain: GPLGDQESCKGRCTEGFNVDKKCQCDELCSYYQSCCTDYTAECKPQVTRGDVFTMPEDEYTVYDDGEEKNNATVHEQVGGPSLTSDLQAQSKGNPEQTPVLKPEEEAPAPEVGASKPEGIDSRPETLHPGRPQP
modifications: Vitronectin-derived Recombinant Protein (RCP-23)

How the values were obtained:
[1] = Evaluation of adsorbability with respect to cell culture surface (OPA fluorescence); type: physicochemical; settings: FIG. 1; for adsorbability with respect to the plate: 0 to 200 pmol/cm^2 added, 2 hours at 37° C., washed twice with PBS
Method: Each of the polypeptides of RCP-1 to RCP-11 and RCP-21 to RCP-26 obtained as above was diluted with a predetermined buffer such that they could be added to wells at a predetermined final concentration of 0 pmol/cm^2 to 200 pmol/cm^2. Thereafter, each of the polypeptides was added in an amount of 64 μL to a plasma-treated 96-well plate made of polystyrene (Tissue Culture-Treated, Falcon). Each of the polypeptides was allowed to adsorb onto the plate by being incubated for 2 hours at 37° C., and then the wells were washed twice with PBS, thereby obtaining surfaces coated with each of the polypeptides of RCP-1 to RCP-11 and RCP-21 to RCP-26.
Among the surfaces coated with each of the polypeptides obtained as above, the surfaces coated with RCP-1 and RCP-21 to RCP-26 were applied with 64 μL of a borate buffer and 64 μL of 1 N NaOH, followed by incubation for 24 hours at 80° C. and 100% humidity. After the resultant was air-cooled, 75 μL of a borate buffer was added to each well, and 50 μL of a reaction solution obtained by mixing OPA (o-phthalaldehyde: Wako Pure Chemical Industries, Ltd./methanol solution (160 mg/ml)) with N-acetyl-L-cysteine (NAC: Wako Pure Chemical Industries, Ltd.)/borate buffer solution (2 mg/ml) at a ratio of 1:100 (mass ratio) was further added thereto. After incubation for 30 minutes at 40° C., the fluorescence intensity thereof was measured by using an Envision Multilabel Counter (PerkinElmer Inc.) (excitation 355 nm/fluorescence 486 nm). A calibration curve was separately prepared from each of the polypeptide solutions so as to calculate the amount of the polypeptide adsorbed. In FIG. 1, a black rhombus indicates RCP-1, a black square indicates RCP-21, a black triangle indicates RCP-22, a black circle indicates RCP-23, a white rhombus indicates RCP-24, a white square indicates RCP-25, and a white triangle indicates RCP-26.

human iPS cells ("Tic") = assay: Cell adhesiveness evaluation 1 (ALP activity of adhesive iPS cells); type: cell-based; settings: 30,000 cells/well, 24 hours, n=3
Method: The cell adhesiveness of human iPS cells (“Tic”: Cell No. JCRB 1331: from National Institute of Biomedical Innovation. [567-0085, 7-6-8 Asagi Saito Ibaraki-City Osaka]) with respect to the aforementioned polypeptides was evaluated in the following manner.
As feeder cells for retaining the human iPS cells, EmbryoMax (registered trademark) (early mouse embryonic fibroblasts: resistant to hygromycin, treated with mitomycin C, derived from C57/BL6, third passage) (Millipore Corporation) was used. By using DMEM (Invitrogen) and a 10% (v/v) fetal bovine serum medium, the feeder cells were cultured for 24 hours and attached to a T25 flask (Corning Incorporated). As a medium for the human iPS cells, the one obtained by adding FGF-2 (Sigma-Aldrich Co, LLC.) to a medium composed as shown in Table 6 at a final concentration of 10 ng/ml was used.
By using the aforementioned medium, the human iPS cells were retained and cultured in a 5% (v/v, the same unit will be used hereinafter) CO2 incubator at 37° C. Except for the day after the seeding of the iPS cells, the medium was replaced every day. The subculture operation was performed by exfoliating the cells by using Dispase II (neutral protease Grade II, Roche) and separating the cells in an appropriate size by a pipetting operation.
The iPS cells cultured as described above were treated with TrypLE Select (Invitrogen) for 5 minutes at 37° C. and separated into a single cell. After being subjected to centrifugation for 2 minutes at 300 rpm, the cells were collected and suspended in TeSR2 (a medium not containing a heterogeneous animal-derived component and a serum component, STEMCELL Technologies.) containing Y-27362 ((R)-(+)-trans-N-(4-pyridyl)-4-(1-aminoethyl)-cyclohexane carboxamide.2HCl.H2O, an Rho binding kinase inhibitor, Wako Pure Chemical Industries, Ltd.) at a final concentration of 10 μM.
Each of RCP-1 to RCP-11, RCP-21, RCP-25, and RCP-26 as control, human vitronectin (extracted from human serum, BD Biosciences), and recombinant laminin (rLaminin-5: Oriental Yeast Co., ltd. and Human Recombinant Laminin-511: BIOLAMINA AB) was added to and suspended in a predetermined buffer (a dialysis buffer used in <GRAVY value and aggregation characteristics> described above for RCP-1 to RCP-11, and PBS for RCP-21, RCP-25, human vitronectin, and recombinant laminin) at the concentration shown in Table 7, thereby preparing samples 1 to 17. The samples were added to the respective wells of a 96-well plate and adsorbed onto the plate by being held for 2 hours at 37° C.
Into the respective wells of the 96-well plate treated with the peptides, iPS cells were seeded at a cell density of 30,000 cells/well. After the cells were cultured for 24 hours, the nonadhesive cells were washed off with PBS, and only the adhesive cells were immobilized by using 4% (v/v) paraformaldehyde (Wako Pure Chemical Industries, Ltd.). By using an Attophos (registered trademark) AP Fluorescent Substrate System (Promega Corporation), the ALP activity was calculated, and from the calibration curve, the number of undifferentiated iPS cells having the ALP activity was calculated. In Table 7, the cell adhesion rate is expressed as a ratio calculated by regarding the cell adhesion rate obtained from the sample 15 using natural vitronectin as being 100%. n=3.

iPS cells [2] = assay: Cell adhesiveness evaluation 3 (RCP-1 added amount); type: cell-based, human; settings: added amount 130 pmol/cm^2; this surface = 100%; n=3
Method: The cell adhesiveness was evaluated in the same manner as in <Cell adhesiveness evaluation 1>, except that RCP-1 was used after the concentration thereof was adjusted to 125 pmol/cm^2 to 1,000 pmol/cm^2 by using PBS. In Table 10, the cell adhesion rate is expressed as a ratio calculated by regarding a cell adhesion rate with respect to the cell culture surface, onto which natural vitronectin is adsorbed at a concentration of 130 pmol/cm^2, as being 100%. n=3.

iPS cells [3] = assay: Evaluation of maintenance of undifferentiated state (reference examples); type: cell-based, human
Method: iPS cells collected in the same manner as in <Cell adhesiveness evaluation 1> were suspended in TeSR2. The iPS cells were seeded into 6-well plate (Tissue culture-treated, Falcon), onto which each of the samples 1, 2, 5, 6, and 7 used in <Cell adhesiveness evaluation 1> was adsorbed in the same manner as in <Cell adhesiveness evaluation 1>, and cultured in a CO2 incubator at 37° C. Except for the day after the seeding, the medium was replaced every day. In the same method as described above, the cells were subcultured every six days.
After being cultured for 1 month under the conditions described above, the cells were immobilized using 4% paraformaldehyde and treated with 1% Triton-X/PBS so as to enhance the membrane permeability. After the cells were subjected to a blocking treatment using an Image IT Signal Enhancer (Invitrogen), an anti-human NANOG antibody (AF 1997, R&D Systems, Inc.), an Alexa Fluor 555 binding rabbit anti-goat IgG antibody (Invitrogen), and DAPI (4′,6-diamidino-2-phenylindole, Dojindo Molecular Technologies, Inc.) were added thereto for labeling, and the cells were imaged using a fluorescence microscope.
FIGS. 3A and 4A show the iPS cells cultured on RCP-1; FIGS. 3B and 4B show the iPS cells cultured on RCP-11; FIGS. 3C and 4C show the iPS cells cultured on natural human vitronectin; FIGS. 3D and 4D show the iPS cells cultured on rLaminin-5; and FIGS. 3E and 4E show the iPS cells cultured on rLaminin-511. The scale bar in the images indicates […]. In FIGS. 3A to 3E, the images on the left side are full images of the colony, and the images on the right side are magnified images. In FIGS. 4A to 4E, the images on the left side are images of the cells stained with DAPI, and the images on the right side are images of the cells stained with an anti-NANOG antibody. The scale bar in FIGS. 3A to 4E indicates 200 μm.

[4] = added amount 200 pmol/cm^2, natural vitronectin (sample 15) = 100%

Molecule	amount adsorbed onto the plate as fraction of the amount of polypeptides containing SEQ ID NO: 2 [1]	adsorbability with respect to the plate [1]	Cell adhesion rate (%) (human iPS cells ("Tic"); [4])	also measured
RCP-24: comparative polypeptide, SEQ ID NO: 29; vitronectin positions 1-55 (GPLGDQESCKGRCTEGFNVDKKCQCDELCSYYQSCCTDYTAECKPQVTRGDVFTMPEDE; Vitronectin-derived Recombinant Protein (RCP-24)) [reference compound]	about ¼			
B1		excellent adsorbability	9.4 ± 2.9	
B2		excellent adsorbability	13.2 ± 3.4	
B3				Cell adhesion rate (%) (human iPS cells ("Tic"); added amount 130 pmol/cm^2, this sample = 100%): 100 ± 5.5%; Cell adhesion rate (%) (iPS cells [2]): 100 ± 5.5%; form of iPS cell colony (iPS cells [3]; TeSR2, subcultured every six days, FIGS. 3A to 3E): form specific to undifferentiated cells; NANOG expression (iPS cells [3]; cultured for 1 month in TeSR2, anti-NANOG staining, FIGS. 4A to 4E): strongly expressed NANOG in the entirety of the colony
B4	about ¼			
